Results: publication PMC2908218

Molecular target: conventional myosin (Caenorhabditis elegans) (UniProt P02566)
Assay: ELISA

Chain of UniProt P02566 (P02566 whole entry): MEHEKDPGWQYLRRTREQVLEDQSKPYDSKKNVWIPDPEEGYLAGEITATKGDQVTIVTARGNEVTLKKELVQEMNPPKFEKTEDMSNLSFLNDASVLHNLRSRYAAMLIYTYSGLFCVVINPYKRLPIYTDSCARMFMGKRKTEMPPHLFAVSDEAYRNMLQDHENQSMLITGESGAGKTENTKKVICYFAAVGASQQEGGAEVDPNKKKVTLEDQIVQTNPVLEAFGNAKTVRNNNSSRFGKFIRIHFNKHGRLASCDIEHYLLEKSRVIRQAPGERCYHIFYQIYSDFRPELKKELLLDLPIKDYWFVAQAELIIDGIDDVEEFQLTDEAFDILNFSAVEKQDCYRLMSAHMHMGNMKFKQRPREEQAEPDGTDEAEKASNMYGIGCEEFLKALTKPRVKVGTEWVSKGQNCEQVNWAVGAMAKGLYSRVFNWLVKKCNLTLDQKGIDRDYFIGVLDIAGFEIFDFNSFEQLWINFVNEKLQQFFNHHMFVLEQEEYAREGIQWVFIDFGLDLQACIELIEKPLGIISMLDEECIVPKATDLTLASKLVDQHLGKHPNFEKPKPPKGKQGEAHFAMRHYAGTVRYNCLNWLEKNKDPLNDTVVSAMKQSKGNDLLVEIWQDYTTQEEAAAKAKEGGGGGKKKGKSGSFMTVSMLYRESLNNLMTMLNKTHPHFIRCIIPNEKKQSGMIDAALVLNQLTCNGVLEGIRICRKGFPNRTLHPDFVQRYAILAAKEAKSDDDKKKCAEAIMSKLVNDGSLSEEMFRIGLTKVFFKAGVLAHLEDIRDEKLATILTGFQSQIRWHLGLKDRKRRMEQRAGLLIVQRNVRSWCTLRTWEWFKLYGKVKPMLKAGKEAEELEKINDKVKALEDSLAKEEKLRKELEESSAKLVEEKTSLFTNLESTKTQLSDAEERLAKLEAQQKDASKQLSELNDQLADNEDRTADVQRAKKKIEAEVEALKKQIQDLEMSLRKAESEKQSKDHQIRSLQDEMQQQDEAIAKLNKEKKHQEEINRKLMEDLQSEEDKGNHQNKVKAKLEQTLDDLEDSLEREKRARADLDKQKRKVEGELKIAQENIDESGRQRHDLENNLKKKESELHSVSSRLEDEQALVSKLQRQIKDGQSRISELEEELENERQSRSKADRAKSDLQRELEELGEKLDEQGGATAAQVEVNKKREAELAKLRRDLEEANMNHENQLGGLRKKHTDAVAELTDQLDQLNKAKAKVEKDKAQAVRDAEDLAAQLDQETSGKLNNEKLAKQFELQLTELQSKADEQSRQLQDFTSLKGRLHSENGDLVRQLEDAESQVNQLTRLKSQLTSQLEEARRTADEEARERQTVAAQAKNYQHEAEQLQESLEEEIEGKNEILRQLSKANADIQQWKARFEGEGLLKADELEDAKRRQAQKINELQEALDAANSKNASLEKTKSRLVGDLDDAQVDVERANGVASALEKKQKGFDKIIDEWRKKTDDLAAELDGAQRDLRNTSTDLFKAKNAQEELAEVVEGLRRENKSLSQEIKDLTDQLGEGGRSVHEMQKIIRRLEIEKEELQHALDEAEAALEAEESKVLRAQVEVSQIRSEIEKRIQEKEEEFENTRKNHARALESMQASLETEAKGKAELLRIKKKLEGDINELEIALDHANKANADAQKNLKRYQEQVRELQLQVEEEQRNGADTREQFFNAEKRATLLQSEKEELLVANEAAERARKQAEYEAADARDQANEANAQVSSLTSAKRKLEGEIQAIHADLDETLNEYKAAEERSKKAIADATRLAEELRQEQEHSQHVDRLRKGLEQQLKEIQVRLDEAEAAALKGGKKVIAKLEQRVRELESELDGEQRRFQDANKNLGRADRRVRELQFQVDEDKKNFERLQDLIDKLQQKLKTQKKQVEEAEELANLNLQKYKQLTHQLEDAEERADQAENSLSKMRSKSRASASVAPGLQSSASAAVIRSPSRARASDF

## TTN-1 fragment 11/12 Ig38-Ig39-Ig40 (from UniProt G4SLH0)
  Kd: 1.5 nM
